Here are results for one molecule from publication PMC7337384 (bioRxiv, 2020).

Bounds are passed on as bounds.

Usually Kd stands for a measure of binding affinity in units of concentration. A higher Kd goes with lower affinity.

The test addresses T1, MERS-CoV receptor-binding domain fused to the Fc domain of human IgG1 (MERS-CoV, UniProt K9N5Q8 381-587).
T1 sequence: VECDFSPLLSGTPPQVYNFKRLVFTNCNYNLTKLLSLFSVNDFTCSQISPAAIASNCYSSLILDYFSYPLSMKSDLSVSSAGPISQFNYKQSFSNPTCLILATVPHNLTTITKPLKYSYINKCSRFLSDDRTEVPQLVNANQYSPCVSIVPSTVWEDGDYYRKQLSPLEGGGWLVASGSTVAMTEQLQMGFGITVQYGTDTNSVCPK
The test can be described thus: SPR. In general terms: Surface plasmon resonance follows binding to a sensor surface in real time, without labels.

B1: soluble monomeric human ACE2-NN (enzymatically inactive human ACE2 lacking its active-site histidines) (domain or fragment)
chain: QSTIEEQAKTFLDKFNHEAEDLFYQSSLASWNYNTNITEENVQNMNNAGDKWSAFLKEQSTLAQMYPLQEIQNLTVKLQLQALQQNGSSVLSEDKSKRLNTILNTMSTIYSTGKVCNPDNPQECLLLEPGLNEIMANSLDYNERLWAWESWRSEVGKQLRPLYEEYVVLKNEMARANHYEDYGDYWRGDYEVNGVDGYDYSRGQLIEDVEHTFEEIKPLYEHLHAYVRAKLMNAYPSYISPIGCLPAHLLGDMWGRFWTNLYSLTVPFGQKPNIDVTDAMVDQAWDAQRIFKEAEKFFVSVGLPNMTQGFWENSMLTDPGNVQKAVCHPTAWDLGKGDFRILMCTKVTMDDFLTAHNEMGNIQYDMAYAAQPFLLRNGANEGFHEAVGEIMSLSAATPKHLKSIGLLSPDFQEDNETEINFLLKQALTIVGTLPFTYMLEKWRWMVFKGEIPKDQWMKKWWEMKREIVGVVEPVPHDETYCDPASLFHVSNDYSFIRYYTRTLYQFQFQEALCQAAKHEGPLHKCDISNSTEAGQKLFNMLRLGKSEPWTLALENVVGAKNMNVRPLLNYFEPLFTWLKDQNKNSFVGWSTDWSPYEPEA
Molecule B1 gave a Kd of more than 35 µM.
